{"source": "patent US20250152742A1", "about": "“COMPOSITIONS AND METHODS FOR NEUROLOGICAL DISEASES” (Trames Bio, Inc., priority 2022, published 2025)", "tested_on": "engineered chimeric receptor SEQ ID NO: 33 and its mutants (human α7-nAChR ligand binding domain / human GlyRα1 ion pore domain) in Lenti-X 293T cells", "test": "YFP fluorescence quenching anion reporter plate reader assay (percent quench, EC50)", "type": "cell-based", "conditions": "for YFP fluorescence quenching using CNL001 (percent quench): receptor named in row; for YFP fluorescence quenching using Varenicline, 3 nM var: ligand Varenicline 3 nM; for YFP fluorescence quenching using Varenicline, 30 nM var: ligand Varenicline 30 nM; for YFP fluorescence quenching using Varenicline, 300 nM var: ligand Varenicline 300 nM; for YFP fluorescence quenching using Varenicline, 500 nM var: ligand Varenicline 500 nM; for YFP fluorescence quenching using Varenicline, 1 uM var: ligand Varenicline 1 uM", "summary_of_the_method": "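Lenti-X 293T cells co-expressing an anion-quenchable YFP were transiently transfected with receptor DNA, then ligand was added in NaI-substituted buffer (pH 7.2) after 30 min at 37 °C. Fluorescence was read about 2 min; percent quench = mean of last 10 s over 15 s pre-ligand baseline.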"}
{"molecule": "CODA377: engineered receptor: S172D in SEQ ID NO: 33 (protein, synthetic sequence of chimeric LGIC) MRCSPGGVWLALAASLLHVSLQGEFQRKLYKELVKNYNPLERPVANDSQPLTVYFSLSLLQIMDVDEKNQVLTTNIWLQMSWTDHYLQWNVSEYPGVKTVRFPDGQIWKPDILLYNSADERFDATFHTNVLVNSSGHCQYLPPGIFKSSCPMDLKNFPMDVQTCKLKFGSWDYGGWSLDLQMQEADISGYIPNGEWDLVGIPGKRSERFYECCKEPYPDVTFTVTMRRRMGYYLIQMYIPSLLIVILSWISFWINMDAAPARVGLGITTVLTMTTQSSGSRASLPKVSYVKAIDIWMAVCLLFVFSALLEYAAVNFVSRQHKELLRFRRKRRHHKSPMLNLFQEDEAGEGRFNFSAYGMGPACLQAKDGISVKGANNSNTTNPPPAPSKSPEEMRKLFIQRAKKIDKISRIGFPMAFLIFNMFYWIIYKIVRREDVHNQ", "values": [{"measurement": "YFP fluorescence quenching using CNL001 (percent quench)", "setting": "1 nM CNL001, first column so headed", "result": 67.544, "unit": "%"}, {"measurement": "YFP fluorescence quenching using CNL001 (percent quench)", "setting": "1 nM CNL001, second column so headed", "result": 74.209, "unit": "%"}, {"measurement": "YFP fluorescence quenching using TC-5619/Bradanicline (percent quench)", "setting": "1 nM brd (TC-5619/Bradanicline)", "result": 0.77, "unit": "%"}, {"measurement": "YFP fluorescence quenching using TC-5619/Bradanicline (percent quench)", "setting": "3 nM brd (TC-5619/Bradanicline)", "result": "−4.59", "unit": "%"}, {"measurement": "YFP fluorescence quenching using CNL001 (percent quench)", "setting": "10 nM CNL001, first column so headed", "result": 74.346, "unit": "%"}, {"measurement": "YFP fluorescence quenching using CNL001 (percent quench)", "setting": "10 nM CNL001, second column so headed", "result": 75.816, "unit": "%"}, {"measurement": "YFP fluorescence quenching using TC-5619/Bradanicline (percent quench)", "setting": "10 nM brd (TC-5619/Bradanicline)", "result": 0.06, "unit": "%"}, {"measurement": "YFP fluorescence quenching using TC-6683 (percent quench)", "setting": "30 nM TC-6683", "result": "−20.23", "unit": "%"}, {"measurement": "YFP fluorescence quenching using TC-5619/Bradanicline (percent quench)", "setting": "30 nM brd (TC-5619/Bradanicline)", "result": "−10.48", "unit": "%"}, {"measurement": "YFP fluorescence quenching using CNL001 (percent quench)", "setting": "50 nM CNL001, first column so headed", "result": 77.068, "unit": "%"}, {"measurement": "YFP fluorescence quenching using CNL001 (percent quench)", "setting": "50 nM CNL001, second column so headed", "result": 76.99, "unit": "%"}, {"measurement": "YFP fluorescence quenching using ABT-126 (percent quench)", "setting": "50 nM abt (ABT-126)", "result": "−1.53", "unit": "%"}, {"measurement": "YFP fluorescence quenching using CNL001 (percent quench)", "setting": "100 nM CNL001, first column so headed", "result": 79.352, "unit": "%"}, {"measurement": "YFP fluorescence quenching using CNL001 (percent quench)", "setting": "100 nM CNL001, second column so headed", "result": 77.865, "unit": "%"}, {"measurement": "YFP fluorescence quenching (percent quench)", "setting": "100 nM CNL002", "result": 59.35, "unit": "%"}, {"measurement": "YFP fluorescence quenching using ABT-126 (percent quench)", "setting": "100 nM abt (ABT-126)", "result": 18.18, "unit": "%"}, {"measurement": "YFP fluorescence quenching using AZD-0328 (percent quench)", "setting": "100 nM azd0328", "result": 65.04, "unit": "%"}, {"measurement": "YFP fluorescence quenching using TC-5619/Bradanicline (percent quench)", "setting": "100 nM brd (TC-5619/Bradanicline)", "result": 0.25, "unit": "%"}, {"measurement": "YFP fluorescence quenching using TC-6683 (percent quench)", "setting": "300 nM TC-6683", "result": "−13.94", "unit": "%"}, {"measurement": "YFP fluorescence quenching using ABT-126 (percent quench)", "setting": "300 nM abt (ABT-126)", "result": 59.15, "unit": "%"}, {"measurement": "YFP fluorescence quenching using AZD-0328 (percent quench)", "setting": "300 nM azd0328", "result": 81.73, "unit": "%"}, {"measurement": "YFP fluorescence quenching using TC-5619/Bradanicline (percent quench)", "setting": "300 nM brd (TC-5619/Bradanicline)", "result": "−10.61", "unit": "%"}, {"measurement": "YFP fluorescence quenching using CNL001 (percent quench)", "setting": "1 uM CNL001, first column so headed", "result": 80.272, "unit": "%"}, {"measurement": "YFP fluorescence quenching using CNL001 (percent quench)", "setting": "1 uM CNL001, second column so headed", "result": 79.432, "unit": "%"}, {"measurement": "YFP fluorescence quenching (percent quench)", "setting": "1 uM CNL002", "result": 79.26, "unit": "%"}, {"measurement": "YFP fluorescence quenching using ABT-126 (percent quench)", "setting": "1 uM abt (ABT-126)", "result": 72.28, "unit": "%"}, {"measurement": "YFP fluorescence quenching using TC-5619/Bradanicline (percent quench)", "setting": "1 uM brd (TC-5619/Bradanicline)", "result": 3.82, "unit": "%"}, {"measurement": "YFP fluorescence quenching using TC-6683 (percent quench)", "setting": "3 uM TC-6683", "result": "−14.17", "unit": "%"}, {"measurement": "YFP fluorescence quenching (percent quench)", "setting": "10 uM ach (acetylcholine)", "result": "−3.19", "unit": "%"}, {"measurement": "YFP fluorescence quenching (percent quench)", "setting": "30 uM CNL002", "result": 79.96, "unit": "%"}, {"measurement": "YFP fluorescence quenching using TC-6683 (percent quench)", "setting": "30 uM TC-6683", "result": 1.86, "unit": "%"}, {"measurement": "YFP fluorescence quenching using AZD-0328 (percent quench)", "setting": "30 uM azd0328", "result": 82.3, "unit": "%"}, {"measurement": "YFP fluorescence quenching using TC-6683 (percent quench)", "setting": "100 uM TC-6683", "result": 43.61, "unit": "%"}, {"measurement": "YFP fluorescence quenching (percent quench)", "setting": "100 uM ach (acetylcholine)", "result": 0.07, "unit": "%"}, {"measurement": "YFP fluorescence quenching (percent quench)", "setting": "1 mM ach (acetylcholine)", "result": 71.7, "unit": "%"}, {"measurement": "YFP fluorescence quenching (percent quench)", "setting": "3 mM ach (acetylcholine)", "result": 76.95, "unit": "%"}, {"measurement": "YFP fluorescence quenching using Facinicline, 30 nM fac", "setting": "ligand Facinicline 30 nM", "result": 4.93}, {"measurement": "YFP fluorescence quenching using Facinicline, 300 nM fac", "setting": "ligand Facinicline 300 nM", "result": 84.13}, {"measurement": "YFP fluorescence quenching using Facinicline, 10 uM fac", "setting": "ligand Facinicline 10 uM", "result": 66.96}, {"measurement": "YFP fluorescence quenching using Facinicline, 30 uM fac", "setting": "ligand Facinicline 30 uM", "result": 85.29}, {"measurement": "YFP fluorescence quenching using TC-6987, 1 uM tc6987", "setting": "ligand TC-6987 1 uM", "result": "−9.74"}, {"measurement": "YFP fluorescence quenching using TC-6987, 3 uM tc6987", "setting": "ligand TC-6987 3 uM", "result": "−14.04"}, {"measurement": "YFP fluorescence quenching using TC-6987, 5 uM tc6987", "setting": "ligand TC-6987 5 uM", "result": "−0.95"}, {"measurement": "YFP fluorescence quenching using TC-6987, 10 uM tc6987", "setting": "ligand TC-6987 10 uM", "result": "−7.41"}, {"measurement": "YFP fluorescence quenching using TC-6987, 30 uM tc6987", "setting": "ligand TC-6987 30 uM", "result": "−16.12"}, {"measurement": "YFP fluorescence quenching using TC-6987, 50 uM tc6987", "setting": "ligand TC-6987 50 uM", "result": "−12.79"}, {"measurement": "YFP fluorescence quenching using TC-6987, 100 uM tc6987", "setting": "ligand TC-6987 100 uM", "result": "−11.77"}, {"measurement": "YFP fluorescence quenching using TC-6987, 300 uM tc6987", "setting": "ligand TC-6987 300 uM", "result": "−19.68"}, {"measurement": "YFP fluorescence quenching using TC-6987, 500 uM tc6987", "setting": "ligand TC-6987 500 uM", "result": "−17.02"}, {"measurement": "YFP fluorescence quenching using Varenicline, 3 nM var", "setting": "first column", "result": "−3.433"}, {"measurement": "YFP fluorescence quenching using Varenicline, 3 nM var", "setting": "second column", "result": "−5.737"}, {"measurement": "YFP fluorescence quenching using Varenicline, 30 nM var", "setting": "first column", "result": "−5.319"}, {"measurement": "YFP fluorescence quenching using Varenicline, 30 nM var", "setting": "second column", "result": "−6.175"}, {"measurement": "YFP fluorescence quenching using Varenicline, 300 nM var", "setting": "first column", "result": "−4.135"}, {"measurement": "YFP fluorescence quenching using Varenicline, 300 nM var", "setting": "second column", "result": "−8.614"}, {"measurement": "YFP fluorescence quenching using Varenicline, 500 nM var", "setting": "first column", "result": "−6.062"}, {"measurement": "YFP fluorescence quenching using Varenicline, 500 nM var", "setting": "second column", "result": "−6.125"}, {"measurement": "YFP fluorescence quenching using Varenicline, 1 uM var", "setting": "first column", "result": "−14.134"}, {"measurement": "YFP fluorescence quenching using Varenicline, 1 uM var", "setting": "second column", "result": "−15.373"}]}
